Paper PMC5458804 (Nature cell biology, 2017)
Each block holds one molecule with its values, some of them ahead of it.

Assays:
[1] = target: p60N/p80C heterodimer (mouse) (UniProt Q9WV86); experiment: crystal structure
[2] = target: p60N/p80C heterodimer (mouse) (UniProt Q9WV86); experiment: AUC
p80C-Y574A = p80C-Y574A (mouse, UniProt Q8BG40 481-658, Y574A); experiment: AUC
[3] = target: p80C (C-terminal domain of katanin p80) (mouse, UniProt Q8BG40 481-658); experiment: AUC
p80C-S538L = p80C-S538L (mouse, UniProt Q8BG40 481-658, S538L); experiment: AUC
p80C-R615A = p80C-R615A (mouse, UniProt Q8BG40 481-658, R615A); experiment: AUC
Sequence of p80C-R615A (Q8BG40 481-658 R615A): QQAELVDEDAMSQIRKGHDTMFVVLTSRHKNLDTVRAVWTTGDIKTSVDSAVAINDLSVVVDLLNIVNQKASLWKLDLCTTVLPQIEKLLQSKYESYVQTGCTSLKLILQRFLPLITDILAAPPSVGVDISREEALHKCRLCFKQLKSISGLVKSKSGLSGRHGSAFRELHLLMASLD

Sequence of p80C (C-terminal domain of katanin p80) (Q8BG40 481-658): as the sequence (Q8BG40 481-658 R615A) above, with A135R counted along it
Sequence of p80C-S538L (Q8BG40 481-658 S538L): as the sequence (Q8BG40 481-658 R615A) above, with S58L, A135R counted along it
Sequence of p80C-Y574A (Q8BG40 481-658 Y574A): as the sequence (Q8BG40 481-658 R615A) above, with Y94A, A135R counted along it

Molecule: ASPMp (peptide corresponding to the third repeat of ASPM, as crystallised)
stoichiometry N [1]: 1

B1: p60N (N-terminal domain of katanin p60) (domain or fragment)
chain: MSLQMIVENVKLAREYALLGNYDSAMVYYQGVLDQMNKYLYSVKDTHLRQKWQQVWQEINVEAKQVKDIMKTLESFKL
binding result (p80C-Y574A): binds
binding result [3]: binds
binding result (p80C-S538L): binds
binding result (p80C-R615A): binds

Further lines, results first:

Kd [2]: 9 µM
Molecule: TAMRA-labeled ASPMp peptide

binding result [3]: binds
B2: p60N-L18A (domain or fragment)
chain: MSLQMIVENVKLAREYAALGNYDSAMVYYQGVLDQMNKYLYSVKDTHLRQKWQQVWQEINVEAKQVKDIMKTLESFKL

binding result [3]: binds
B3: p60N-L19A (domain or fragment)
chain: MSLQMIVENVKLAREYALAGNYDSAMVYYQGVLDQMNKYLYSVKDTHLRQKWQQVWQEINVEAKQVKDIMKTLESFKL
